From publication PMC4251995

How the values were obtained:
[1] = molecular target: Phosphorylated DesR wild type, full-length (Bacillus subtilis) (UniProt O34723); assay: SAXS
[2] = molecular target: Phosphorylated DesR wild type, full-length (Bacillus subtilis) (UniProt O34723); assay: SEC

stoichiometry N [1]: 2
stoichiometry N [2]: 2
Substance: Phosphorylated DesR wild type, full-length (from UniProt O34723 1-199) (natural protein)
